Molecular target: Recombinant mouse SIGN-R1 Fc chimera protein, extracellular domain (mouse) (UniProt Q8CJ91)
Assay: SPR

Chain of UniProt Q8CJ91 (Q8CJ91 74-325, change not shown): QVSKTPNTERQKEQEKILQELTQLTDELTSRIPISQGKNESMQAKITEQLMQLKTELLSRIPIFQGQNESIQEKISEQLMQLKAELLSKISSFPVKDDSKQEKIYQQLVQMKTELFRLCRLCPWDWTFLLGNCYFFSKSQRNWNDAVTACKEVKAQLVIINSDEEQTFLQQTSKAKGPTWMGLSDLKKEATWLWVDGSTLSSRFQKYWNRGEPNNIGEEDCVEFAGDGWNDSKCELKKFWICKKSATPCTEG

Substance: Hemagglutinin HA from Influenza A H1N1 (A/Puerto Rico/8/34) (from UniProt P03452) (natural protein)
- Kd: 142 nM
